This passage reports Kd results from paper PMC10038052.

Where two headings read alike, the source gives them in different places.

What all share (test): fluorescence polarization
For orientation: In fluorescence polarisation assays a small probe gives low polarisation when free and higher when bound to something large.

Data set [1] addresses T1, MBP-hnRNP A2/B1 (1-251) (UniProt P22626 1-251).
Data set [2] concerns the target T2, SRSF1 RRM1+2 (UniProt Q07955 1-195).
In data set [3] the target is T1, MBP-hnRNP A2/B1 (1-251). This is another data set of the same source.
For data set [4], the target named is T2, SRSF1 RRM1+2. This is another data set of the same source.
The target in data set [5] is T1, MBP-hnRNP A2/B1 (1-251). The source holds these as a separate data set.

T1 sequence (P22626 1-251): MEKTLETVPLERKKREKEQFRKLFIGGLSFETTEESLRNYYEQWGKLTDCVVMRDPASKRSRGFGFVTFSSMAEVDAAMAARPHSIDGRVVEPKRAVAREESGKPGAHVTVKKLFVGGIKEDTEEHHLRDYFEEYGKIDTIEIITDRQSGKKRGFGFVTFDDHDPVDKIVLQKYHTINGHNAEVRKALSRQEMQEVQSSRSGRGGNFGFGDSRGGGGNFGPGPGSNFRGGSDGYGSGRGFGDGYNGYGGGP
T2 sequence (Q07955 1-195): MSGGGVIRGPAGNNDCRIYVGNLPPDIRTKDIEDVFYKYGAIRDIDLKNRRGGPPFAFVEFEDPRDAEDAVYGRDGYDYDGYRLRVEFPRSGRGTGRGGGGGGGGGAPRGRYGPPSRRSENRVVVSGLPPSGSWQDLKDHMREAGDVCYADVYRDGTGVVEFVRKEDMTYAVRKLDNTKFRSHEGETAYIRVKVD

The molecule AAGGACUAGCAAGGACUAGCAAGGACUAGC (ssRNA) [FAM-H3 (10 mer 3n)] came in with a Kd with MBP-hnRNP A2/B1 (1-251) [1] of 24 ± 8.1 nM.
Molecule AGAAGAACAGAAGAACAGAAGAAC (ssRNA) [FAM-S3 (A3 3n)] came in with an equilibrium dissociation constant (Kd) with SRSF1 RRM1+2 [2] of 42.5 ± 33.9 nM.
The molecule AAGGACUAGCAAGGACUAGC (ssRNA) [FAM-H2 (10 mer 2n)] returned a Kd in the data set with MBP-hnRNP A2/B1 (1-251) [3] of 135 ± 9 nM.
In the data set with SRSF1 RRM1+2 [4], AGAAGAACAGAAGAAC (ssRNA) [FAM-S2 (A3 2n)] yielded a Kd of 56.1 ± 17.5 nM.
For AAGGACUAGC (ssRNA) [FAM-H1 (10 mer 1n)], the affinity with MBP-hnRNP A2/B1 (1-251) [5], expressed as Kd, was 51.7 ± 9 nM.

One may read the Kd as the equilibrium constant for the complex coming apart.
